Experimental findings from PMC9918544 are described below.

For one test, the target named is FSFG_(52×12) Mutant 1. Briefly: partitioning into the condensed FG phase (confocal laser scanning microscopy); FG particles of unlabelled FG domain in assay buffer (50 mM Tris/HCl, 5 mM DTT, 150 mM NaCl) mixed with fluorescent probe: 6 μM mCherry, 3 μM EGFP, 1 μM NTR or 1.5 μM NTR pre-incubated with 1 μM cargo; partition coefficient = signal in the centre of the particle / buffer; 21 °C.

The next test addresses FSFG_(52×12) Mutant 2. The test is described as above.

Consider “NTF2 (Nuclear transport factor 2), coupled with Alexa488 (from UniProt P61970 1-127) (natural protein)”, for which the partition coefficient with FSFG_(52×12) Mutant 1 and with FSFG_(52×12) Mutant 2 was 2000 each time.
